The source of these data is IntAct's records for PubMed 17805301.

First the molecules themselves.
B1: CREB-regulated transcription coactivator 2 (Mus musculus), Q3U182 (parent)
chain: MATSGANGPGSATASASNPRKFSEKIALQKQRQAEETAAFEEVMMDIGSTRLQAQKLRLAYTRSSHYGGSLPNVNQIGCGLAEFQSPLHSPLDSSRSTRHHGLVERVQRDARRMVSPLRRYPRHIDSSPYSPAYLSPPPESGWRRMMPWGNLPAEKGQLFRLPSALNRTSSDSALHTSVMNPNPQDTYPGPTPPSVLPSRRGGGFLDGEMDAKVPAIEENVVDDKHLLKPWDAKKLSSSSSRPRSCEVPGINIFPSPDQPANVPVLPPAMNTGGSLPDLTNLHFPPPLPTPLDPEETVYPSLSGGNSTTNLTHTMTHLGISGGLGLGPSYDVPGLHSPLSHPSLQSSLSNPNLQASLSSPQPQLQGSHSHPSLPASSLAHHALPTTSLGHPSLSAPALSSSSSSSSTSSPVLSAPPYPASTPGASPRHRRVPLSPLSLPAGPADARRSQQQLPKQFSPTMSPTLSSITQGVPLDTSKLPTDQRLPPYPYSPPSLVIPTHPPTPKSLQQLPSQACLVQPSGGQPPGRQPHYGALYPPGSSGHGQQPYHRPINDFSLGNLEQFNMESPSTSLVLDPPAFSEGPGFLGSEGSMSGPQDPHVLNHQNLTHCSRHGSGPNIILTGDSSPGFSKEIAAALAGVPGFEVSASGLELGLGLEDELRMEPLGLEGLTMLSDPCALLPDPAVEDSFRSDRLQ

The variants in this test derive from B1. As to conditions: with cop1_mouse Cop1, Q9R1A8.
cop1_mouse Cop1, Q9R1A8, sequence (Q9R1A8 whole entry): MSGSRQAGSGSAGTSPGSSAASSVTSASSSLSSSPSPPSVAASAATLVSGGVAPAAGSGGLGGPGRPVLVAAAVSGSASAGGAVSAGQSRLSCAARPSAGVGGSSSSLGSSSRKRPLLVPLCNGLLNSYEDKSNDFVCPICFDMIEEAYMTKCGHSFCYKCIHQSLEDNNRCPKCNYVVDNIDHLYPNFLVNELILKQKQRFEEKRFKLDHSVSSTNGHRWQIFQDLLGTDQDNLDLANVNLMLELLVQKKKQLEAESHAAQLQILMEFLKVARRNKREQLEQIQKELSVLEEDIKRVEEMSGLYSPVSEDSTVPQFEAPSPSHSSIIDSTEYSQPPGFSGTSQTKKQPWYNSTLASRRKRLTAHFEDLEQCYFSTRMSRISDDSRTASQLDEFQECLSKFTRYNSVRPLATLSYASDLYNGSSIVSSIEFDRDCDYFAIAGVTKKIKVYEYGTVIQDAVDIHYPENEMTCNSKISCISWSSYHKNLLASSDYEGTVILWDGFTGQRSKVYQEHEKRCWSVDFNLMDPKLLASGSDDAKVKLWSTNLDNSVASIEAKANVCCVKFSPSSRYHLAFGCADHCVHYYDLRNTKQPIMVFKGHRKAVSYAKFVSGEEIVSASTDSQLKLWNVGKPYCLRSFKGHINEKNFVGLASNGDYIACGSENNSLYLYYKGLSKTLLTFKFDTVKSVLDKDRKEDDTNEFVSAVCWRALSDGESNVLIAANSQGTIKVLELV
Regarding V214A;P215A, the “effect of a mutation on the interaction” value is listed as “disrupting interaction strength”.
